In the supplement of paper PMC5998384:

How the values were obtained:
HeLa Kyoto [1] = experiment: solubility in G1/S (NP-40 vs SDS abundance) (log2 ratio); higher = more soluble; settings: cell cycle stage: G1/S
HeLa Kyoto [2] = experiment: thermal stability score vs G1/S (z-score of summed log2 fold changes over temperatures); higher = more thermally stable than in G1/S
HeLa Kyoto [3] = experiment: melting temperature (median over replicates), in situ; higher = more thermally stable
HeLa Kyoto [4] = experiment: solubility change mitosis vs G1/S (difference of NP-40 vs SDS log2 ratios) (log2 ratio difference); higher = more soluble in mitosis
[5] = cell cycle stage: early G1 (4.5 h after nocodazole release)
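Throughout, for melting temperature (median over replicates), in situ: HeLa Kyoto cells synchronized by double thymidine or nocodazole block, proteins quantified by TMT10plex mass spectrometry, three independent biological replicates.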
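Throughout, for solubility change mitosis vs G1/S (difference of NP-40 vs SDS log2 ratios): synchronized HeLa Kyoto cells (double thymidine block for G1/S, nocodazole release for mitosis), protein amounts in NP-40 versus SDS lysates quantified by mass spectrometry, three biological replicates.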
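Throughout, for solubility in G1/S (NP-40 vs SDS abundance): HeLa Kyoto cells arrested at G1/S by double thymidine block, proteins quantified by TMT10plex mass spectrometry in mild NP-40 versus SDS extracts, three biological replicates.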
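Throughout, for thermal stability score vs G1/S (z-score of summed log2 fold changes over temperatures): synchronized HeLa Kyoto cells, proteins quantified by TMT10plex mass spectrometry, three biological replicates, mitosis taken 0.5 h after nocodazole release, G1/S directly after double thymidine block.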

Row | Substance | solubility in G1/S (log2) (HeLa Kyoto [1]) | thermal stability score (HeLa Kyoto [2]; [5]) | thermal stability score (HeLa Kyoto [2]; cell cycle stage: mitosis) | melting temperature (HeLa Kyoto [3]; cell cycle stage: G1/S) [°C] | melting temperature (HeLa Kyoto [3]; cell cycle stage: mitosis) [°C] | solubility change mitosis (log2) (HeLa Kyoto [4])
1 | MLKFRTVHGGLRLLGIRRTSTAPAASPNVRRLEYKPIKKVMVANRGEIAIRVFRACTELGIRTVAIYSEQDTGQMHRQKADEAYLIGRGLAPVQAYLHIPDIIKVAKENNVDAVHPGYGFLSERADFAQACQDAGVRFIGPSPEVVRKMGDKVEARAIAIAAGVPVVPGTDAPITSLHEAHEFSNTYGFPIIFKAAYGGGGRGMRVVHSYEELEENYTRAYSEALAAFGNGALFVEKFIEKPRHIEVQILGDQYGNILHLYERDCSIQRRHQKVVEIAPAAHLDPQLRTRLTSDSVKLAKQVGYENAGTVEFLVDRHGKHYFIEVNSRLQVEHTVTEEITDVDLVHAQIHVAEGRSLPDLGLRQENIRINGCAIQCRVTTEDPARSFQPDTGRIEVFRSGEGMGIRLDNASAFQGAVISPHYDSLLVKVIAHGKDHPTAATKMSRALAEFRVRGVKTNIAFLQNVLNNQQFLAGTVDTQFIDENPELFQLRPAQNRAQKLLHYLGHVMVNGPTTPIPVKASPSPTDPVVPAVPIGPPPAGFRDILLREGPEGFARAVRNHPGLLLMDTTFRDAHQSLLATRVRTHDLKKIAPYVAHNFSKLFSMENWGGATFDVAMRFLYECPWRRLQELRELIPNIPFQMLLRGANAVGYTNYPDNVVFKFCEVAKENGMDVFRVFDSLNYLPNMLLGMEAAGSAGGVVEAAISYTGDVADPSRTKYSLQYYMGLAEELVRAGTHILCIKDMAGLLKPTACTMLVSSLRDRFPDLPLHIHTHDTSGAGVAAMLACAQAGADVVDVAADSMSGMTSQPSMGALVACTRGTPLDTEVPMERVFDYSEYWEGARGLYAAFDCTATMKSGNSDVYENEIPGGQYTNLHFQAHSMGLGSKFKEVKKAYVEANQMLGDLIKVTPSSKIVGDLAQFMVQNGLSRAEAEAQAEELSFPRSVVEFLQGYIGVPHGGFPEPFRSKVLKDLPRVEGRPGASLPPLDLQALEKELVDRHGEEVTPEDVLSAAMYPDVFAHFKDFTATFGPLDSLNTRLFLQGPKIAEEFEVELERGKTLHIKALAVSDLNRAGQRQVFFELNGQLRSILVKDTQAMKEMHFHPKALKDVKGQIGAPMPGKVIDIKVVAGAKVAKGQPLCVLSAMKMETVVTSPMEGTVRKVHVTKDMTLEGDDLILEIE [PC] | -0.0111 | -1.77 | -2.7 | 51.4 | 51.5 | -0.101
2 | MEIPPTNYPASRAALVAQNYINYQQGTPHRVFEVQKVKQASMEDIPGRGHKYHLKFAVEEIIQKQVKVNCTAEVLYPSTGQETAPEVNFTFEGETGKNPDEEDNTFYQRLKSMKEPLEAQNIPDNFGNVSPEMTLVLHLAWVACGYIIWQNSTEDTWYKMVKIQTVKQVQRNDDFIELDYTILLHNIASQEIIPWQMQVLWHPQYGTKVKHNSRLPKEVQLE [LXN] | 0.224 | 0.745 | 0.0486 | 51.9 | 52.3 | -0.098
3 | MSIFTPTNQIRLTNVAVVRMKRAGKRFEIACYKNKVVGWRSGVEKDLDEVLQTHSVFVNVSKGQVAKKEDLISAFGTDDQTEICKQILTKGEVQVSDKERHTQLEQMFRDIATIVADKCVNPETKRPYTVILIERAMKDIHYSVKTNKSTKQQALEVIKQLKEKMKIERAHMRLRFILPVNEGKKLKEKLKPLIKVIESEDYGQQLEIVCLIDPGCFREIDELIKKETKGKGSLEVLNLKDVEEGDEKFE [SBDS] | -0.0131 | 1.75 | 2.97 | 50.4 | 50.2 | -0.0695
4 | MVEEVQKHSVHTLVFRSLKRTHDMFVADNGKPVPLDEESHKRKMAIKLRNEYGPVLHMPTSKENLKEKGPQNATDSYVHKQYPANQGQEVEYFVAGTHPYPPGPGVALTADTKIQRMPSESAAQSLAVALPLQTKADANRTAPSGSEYRHPGASDRPQPTAMNSIVMETGNTKNSALMAKKAPTMPKPQWHPPWKLYRVISGHLGWVRCIAVEPGNQWFVTGSADRTIKIWDLASGKLKLSLTGHISTVRGVIVSTRSPYLFSCGEDKQVKCWDLEYNKVIRHYHGHLSAVYGLDLHPTIDVLVTCSRDSTARIWDVRTKASVHTLSGHTNAVATVRCQAAEPQIITGSHDTTIRLWDLVAGKTRVTLTNHKKSVRAVVLHPRHYTFASGSPDNIKQWKFPDGSFIQNLSGHNAIINTLTVNSDGVLVSGADNGTMHLWDWRTGYNFQRVHAAVQPGSLDSESGIFACAFDQSESRLLTAEADKTIKVYREDDTATEETHPVSWKPEIIKRKRF [PLRG1] | -0.776 | -0.0826 | -5.45 | 50.6 | 50.6 | 0.247
5 | HNRNPK | 0.317 | -0.521 | 2.21 | 49.7 | 49.9 | 0.0123
6 | MAAAAAAVGPGAGGAGSAVPGGAGPCATVSVFPGARLLTIGDANGEIQRHAEQQALRLEVRAGPDSAGIALYSHEDVCVFKCSVSRETECSRVGKQSFIITLGCNSVLIQFATPNDFCSFYNILKTCRGHTLERSVFSERTEESSAVQYFQFYGYLSQQQNMMQDYVRTGTYQRAILQNHTDFKDKIVLDVGCGSGILSFFAAQAGARKIYAVEASTMAQHAEVLVKSNNLTDRIVVIPGKVEEVSLPEQVDIIISEPMGYMLFNERMLESYLHAKKYLKPSGNMFPTIGDVHLAPFTDEQLYMEQFTKANFWYQPSFHGVDLSALRGAAVDEYFRQPVVDTFDIRILMAKSVKYTVNFLEAKEGDLHRIEIPFKFHMLHSGLVHGLAFWFDVAFIGSIMTVWLSTAPTEPLTHWYQVRCLFQSPLFAKAGDTLSGTCLLIANKRQSYDISIVAQVDQTGSKSSNLLDLKNPFFRYTGTTPSPPPGSHYTSPSENMWNTGSTYNLSSGMAVAGMPTAYDLSSVIASGSSVGHNNLIPLANTGIVNHTHSRMGSIMSTGIVQGSSGAQGSGGGSTSAHYAVNSQFTMGGPAISMASPMSIPTNTMHYGS [CARM1] | -0.0215 | -1.1 | -1.42 | 56 | 56.3 | -0.216
7 | MERQVLLSEPEEAAALYRGLSRQPALSAACLGPEVTTQYGGQYRTVHTEWTQRDLERMENIRFCRQYLVFHDGDSVVFAGPAGNSVETRGELLSRESPSGTMKAVLRKAGGTGPGEEKQFLEVWEKNRKLKSFNLSALEKHGPVYEDDCFGCLSWSHSETHLLYVAEKKRPKAESFFQTKALDVSASDDEIARLKKPDQAIKGDQFVFYEDWGENMVSKSIPVLCVLDVESGNISVLEGVPENVSPGQAFWAPGDAGVVFVGWWHEPFRLGIRFCTNRRSALYYVDLIGGKCELLSDDSLAVSSPRLSPDQCRIVYLQYPSLIPHHQCSQLCLYDWYTKVTSVVVDVVPRQLGENFSGIYCSLLPLGCWSADSQRVVFDSAQRSRQDLFAVDTQVGTVTSLTAGGSGGSWKLLTIDQDLMVAQFSTPSLPPTLKVGFLPSAGKEQSVLWVSLEEAEPIPDIHWGIRVLQPPPEQENVQYAGLDFEAILLQPGSPPDKTQVPMVVMPHGGPHSSFVTAWMLFPAMLCKMGFAVLLVNYRGSTGFGQDSILSLPGNVGHQDVKDVQFAVEQVLQEEHFDASHVALMGGSHGGFISCHLIGQYPETYRACVARNPVINIASMLGSTDIPDWCVVEAGFPFSSDCLPDLSVWAEMLDKSPIRYIPQVKTPLLLMLGQEDRRVPFKQGMEYYRALKTRNVPVRLLLYPKSTHALSEVEVESDSFMNAVLWLRTHLGS [APEH] | 0.11 | -2.58 | -2.38 | 58.5 | 59.4 | -0.0981
8 | PLXNA1 | -0.0498 | -1.69 | -1.65 | 53.8 | 52.5 | 0.0188
9 | MPSLLVLTFSPCVLLGWALLAGGTGGGGVGGGGGGAGIGGGRQEREALPPQKIEVLVLLPQDDSYLFSLTRVRPAIEYALRSVEGNGTGRRLLPPGTRFQVAYEDSDCGNRALFSLVDRVAAARGAKPDLILGPVCEYAAAPVARLASHWDLPMLSAGALAAGFQHKDSEYSHLTRVAPAYAKMGEMMLALFRHHHWSRAALVYSDDKLERNCYFTLEGVHEVFQEEGLHTSIYSFDETKDLDLEDIVRNIQASERVVIMCASSDTIRSIMLVAHRHGMTSGDYAFFNIELFNSSSYGDGSWKRGDKHDFEAKQAYSSLQTVTLLRTVKPEFEKFSMEVKSSVEKQGLNMEDYVNMFVEGFHDAILLYVLALHEVLRAGYSKKDGGKIIQQTWNRTFEGIAGQVSIDANGDRYGDFSVIAMTDVEAGTQEVIGDYFGKEGRFEMRPNVKYPWGPLKLRIDENRIVEHTNSSPCKSSGGLEESAVTGIVVGALLGAGLLMAFYFFRKKYRITIERRTQQEESNLGKHRELREDSIRSHFSVA [NPR3] | 0.0598 | -4.69 | -4.35 | 53.9 | 54.4 | -0.0686
10 | MLFLALGSPWAVELPLCGRRTALCAAAALRGPRASVSRASSSSGPSGPVAGWSTGPSGAARLLRRPGRAQIPVYWEGYVRFLNTPSDKSEDGRLIYTGNMARAVFGVKCFSYSTSLIGLTFLPYIFTQNNAISESVPLPIQIIFYGIMGSFTVITPVLLHFITKGYVIRLYHEATTDTYKAITYNAMLAETSTVFHQNDVKIPDAKHVFTTFYAKTKSLLVNPVLFPNREDYIHLMGYDKEEFILYMEETSEEKRHKDDK [TMEM70] | -0.0239 | 0.217 | -1.65 | 54.1 | 53.4 | -0.344
11 | GEMIN5 | -0.199 | -0.261 | 1.19 | 49.4 | 49.7 | -0.155
12 | MVDPVGFAEAWKAQFPDSEPPRMELRSVGDIEQELERCKASIRRLEQEVNQERFRMIYLQTLLAKEKKSYDRQRWGFRRAAQAPDGASEPRASASRPQPAPADGADPPPAEEPEARPDGEGSPGKARPGTARRPGAAASGERDDRGPPASVAALRSNFERIRKGHGQPGADAEKPFYVNVEFHHERGLVKVNDKEVSDRISSLGSQAMQMERKKSQHGAGSSVGDASRPPYRGRSSESSCGVDGDYEDAELNPRFLKDNLIDANGGSRPPWPPLEYQPYQSIYVGGMMEGEGKGPLLRSQSTSEQEKRLTWPRRSYSPRSFEDCGGGYTPDCSSNENLTSSEEDFSSGQSSRVSPSPTTYRMFRDKSRSPSQNSQQSFDSSSPPTPQCHKRHRHCPVVVSEATIVGVRKTGQIWPNDGEGAFHGDADGSFGTPPGYGCAADRAEEQRRHQDGLPYIDDSPSSSPHLSSKGRGSRDALVSGALESTKASELDLEKGLEMRKWVLSGILASEETYLSHLEALLLPMKPLKAAATTSQPVLTSQQIETIFFKVPELYEIHKEFYDGLFPRVQQWSHQQRVGDLFQKLASQLGVYRAFVDNYGVAMEMAEKCCQANAQFAEISENLRARSNKDAKDPTTKNSLETLLYKPVDRVTRSTLVLHDLLKHTPASHPDHPLLQDALRISQNFLSSINEEITPRRQSMTVKKGEHRQLLKDSFMVELVEGARKLRHVFLFTDLLLCTKLKKQSGGKTQQYDCKWYIPLTDLSFQMVDELEAVPNIPLVPDEELDALKIKISQIKNDIQREKRANKGSKATERLKKKLSEQESLLLLMSPSMAFRVHSRNGKSYTFLISSDYERAEWRENIREQQKKCFRSFSLTSVELQMLTNSCVKLQTVHSIPLTINKEDDESPGLYGFLNVIVHSATGFKQSSNLYCTLEVDSFGYFVNKAKTRVYRDTAEPNWNEEFEIELEGSQTLRILCYEKCYNKTKIPKEDGESTDRLMGKGQVQLDPQALQDRDWQRTVIAMNGIEVKLSVKFNSREFSLKRMPSRKQTGVFGVKIAVVTKRERSKVPYIVRQCVEEIERRGMEEVGIYRVSGVATDIQALKAAFDVNNKDVSVMMSEMDVNAIAGTLKLYFRELPEPLFTDEFYPNFAEGIALSDPVAKESCMLNLLLSLPEANLLTFLFLLDHLKRVAEKEAVNKMSLHNLATVFGPTLLRPSEKESKLPANPSQPITMTDSWSLEVMSQVQVLLYFLQLEAIPAPDSKRQSILFSTEV [BCR] | -0.109 | 0.827 | 1.59 | 49 | 49.2 | -0.114
